# System: B cells
# Experiment: BAFF and APRIL B cell growth (viability signaling in B cells)
# Assay type: cell-based
# Conditions: added C5a, compared with disabling B cell C3aR/C5aR signaling, which suppressed growth (FIG. 3)
# From the text: FIGS. 3(A-B) illustrate graphs showing BAFF and APRIL viability signaling in B cells depends on C3aR/C5aR signaling.
# (FIGS. 1(A-C) and FIGS. 2(A-B)). […] (FIGS. 3(A-C)). […] (FIGS. 4(A-B)). Following ova immunization, recipients of adoptively transferred C3ar1^−/−C5ar1^−/− B cells produced reduced IgM Ab and no other isotypes.
molecule,measurement,value
"C5a: complement anaphylatoxin C5a, ligand of the C5a receptor (C5aR), added to B cells (protein, UniProt P01031 678-751, looked up, C5a anaphylatoxin, complement anaphylatoxin C5a, ligand of the C5a receptor (C5aR), added to B cells) C5a anaphylatoxin: TLQKKIEEIAAKYKHSVVKKCCYDGACVNNDETCEQRAARISLGPRCIKAFTECCVVASQLRANISHKDMQLGR",BAFF and APRIL B cell growth,opposite effect
